In the RNAGym collection of RNA variant scans (doi:10.1093/molbev/msab373):

B1: Azoarcus group I ribozyme (parent)
chain: GUGCCUUGCGCCGGGAAACCACGCAAGGGAUGGUGUCAAAUUCGGCGAAACCUAAGCGCCCGCCCGGGCGUAUGGCAACGCCGAGCCAAGCUUCGGCGCCUGCGCCGAUGAAGGUGUAGAGACUAGACGGCACCCACCUAAGGCAAACGCUAUGGUGAAGGCAUAGUCCAGGGAGUGGCGAAAGUCACACAAACCGG

Variants of: B1
Assay: reverse-splicing fitness (ratio to wild type); higher = more active; in vitro selection; Mg2+ level not given
Outline: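 An in vitro group I ribozyme library with randomized positions was T7-transcribed and gel-purified. In triplicate, 10 pmol RNA in EPPS pH 7.5 was reacted with 50 pmoles of a 30-nt RNA substrate for 1 h at 37 °C across several added MgCl2 levels (1–48 mM), then stopped with EDTA. Products were reverse transcribed from a substrate-complementary primer, PCR-amplified and sequenced (HiSeq 4000). Fitness is a variant's read proportion after selection over that before, normalised to wild type.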

Variant | reverse-splicing fitness
GUGCCUUGCGCCGGGAAACCACGCAAGGGAUGGUGUCAAAUUCGGCGAAACCUAAGCGCCCGCCCGGGCGUAUGGCAACGCCGAGCCAAGCUUCGGCGCCUGCGCCGAUGUAGGUGUAGCGACUAGACGGCACCCACCUAAGGCCAACGCUAUGGUGAAGGCAUAGUCCAGGGAGUGGCGAAAGUCACACAAACCGG | 0.537
GUGCCUUGCGCCGGGAAACCACGCAAGGGAUGGUGUCAAAUUCGGCGAAACCUAAGCGCCCGCCCGGGCGUAUGGCAACGCCGAGCCAAGCUUCGGCGCCUGCGCCGAUGGAGGUGUAGAGACUAGACGGCACCCACCUAAGGCAAACGCUAUGGUGAAGGCAUAGUCCAGGGAGCGGCGAAAGUCACACAAACCGG | 0.752
GUGCCUUGCGCCGGGAAACCACGCAAGGGAUGGUGUCAAAUUCGGCGAAACCUAAGCGCCCGCCCGGGCGUAUGGCAACGCCGAGCCAAGCUUCGGCGCCUGCGCCGAUGGAGGUGUAGAGACUAGACGGCACCCACCUAAGGCAAACGCUAUGGUGAAGGCAUAGUCCAGGGAGAGGCGAAAGUCACACAAACCGG | 0.794
GUGCCUUGCGCCGGGAAACCACGCAAGGGAUGGUGUCAAAUUCGGCGAAACCUAAGCGCCCGCCCGGGCGUAUGGCAACGCCGAGCCAAGCUUCGGCGCCUGCGCCGAUGGAGGUGUAGAGACUAGACGGCACCCACCUAAGGCAAACGCUAUGGUGAAGGCAUAGUCCAGGGAGGGGCGAAAGUCACACAAACCGG | 0.354
GUGCCUUGCGCCGGGAAACCACGCAAGGGAUGGUGUCAAAUUCGGCGAAACCUAAGCGCCCGCCCGGGCGUAUGGCAACGCCGAGCCAAGCUUCGGCGCCUGCGCCGAUGUAGGUGUAGCGACUAGACGGCACCCACCUAAGGCCAACGAUAUGGUGAAGGCAUAGUCAAGGGAGAGGCGAAAGUCACACAAACCGG | 0.0101
GUGCCUUGCGCCGGGAAACCACGCAAGGGAUGGUGUCAAAUUCGGCGAAACCUAAGCGCCCGCCCGGGCGUAUGGCAACGCCGAGCCAAGCUUCGGCGCCUGCGCCGAUGGAGGUGUAGAGACUAGACGGCACCCACCUAAGGCAAACGUUAUGGUGAAGGCAUAGUCCAGGGAGAGGCGAAAGUCACACAAACCGG | 0.686
GUGCCUUGCGCCGGGAAACCACGCAAGGGAUGGUGUCAAAUUCGGCGAAACCUAAGCGCCCGCCCGGGCGUAUGGCAACGCCGAGCCAAGCUUCGGCGCCUGCGCCGAUGGAGGUGUAGAGACUAGACGGCACCCACCUAAGGCAAACGUUAUGGUGAAGGCAUAGUCCAGGGAGGGGCGAAAGUCACACAAACCGG | 0.271
GUGCCUUGCGCCGGGAAACCACGCAAGGGAUGGUGUCAAAUUCGGCGAAACCUAAGCGCCCGCCCGGGCGUAUGGCAACGCCGAGCCAAGCUUCGGCGCCUGCGCCGAUGGAGGUGUAGAGACUAGACGGCACCCACCUAAGGCAAACGUUAUGGUGAAGGCAUAGUCCAGGGAGCGGCGAAAGUCACACAAACCGG | 0.646
GUGCCUUGCGCCGGGAAACCACGCAAGGGAUGGUGUCAAAUUCGGCGAAACCUAAGCGCCCGCCCGGGCGUAUGGCAACGCCGAGCCAAGCUUCGGCGCCUGCGCCGAUGGAGGUGUAGAGACUAGACGGCACCCACCUAAGGCAAACGCUAUGGUGAAGGCAUAGUCAAGGGAGCGGCGAAAGUCACACAAACCGG | 0.0226
GUGCCUUGCGCCGGGAAACCACGCAAGGGAUGGUGUCAAAUUCGGCGAAACCUAAGCGCCCGCCCGGGCGUAUGGCAACGCCGAGCCAAGCUUCGGCGCCUGCGCCGAUGGAGGUGUAGAGACUAGACGGCACCCACCUAAGGCAAACGCUAUGGUGAAGGCAUAGUCAAGGGAGAGGCGAAAGUCACACAAACCGG | 0.0183
GUGCCUUGCGCCGGGAAACCACGCAAGGGAUGGUGUCAAAUUCGGCGAAACCUAAGCGCCCGCCCGGGCGUAUGGCAACGCCGAGCCAAGCUUCGGCGCCUGCGCCGAUGGAGGUGUAGAGACUAGACGGCACCCACCUAAGGCAAACGCUAUGGUGAAGGCAUAGUCAAGGGAGGGGCGAAAGUCACACAAACCGG | 0.00542
GUGCCUUGCGCCGGGAAACCACGCAAGGGAUGGUGUCAAAUUCGGCGAAACCUAAGCGCCCGCCCGGGCGUAUGGCAACGCCGAGCCAAGCUUCGGCGCCUGCGCCGAUGUAGGUGUAGCGACUAGACGGCACCCACCUAAGGCCAACGAUAUGGUGAAGGCAUAGUCAAGGGAGUGGCGAAAGUCACACAAACCGG | 0.00677
GUGCCUUGCGCCGGGAAACCACGCAAGGGAUGGUGUCAAAUUCGGCGAAACCUAAGCGCCCGCCCGGGCGUAUGGCAACGCCGAGCCAAGCUUCGGCGCCUGCGCCGAUGGAGGUGUAGAGACUAGACGGCACCCACCUAAGGCAAACGCUAUGGUGAAGGCAUAGUCUAGGGAGGGGCGAAAGUCACACAAACCGG | 0.00769
GUGCCUUGCGCCGGGAAACCACGCAAGGGAUGGUGUCAAAUUCGGCGAAACCUAAGCGCCCGCCCGGGCGUAUGGCAACGCCGAGCCAAGCUUCGGCGCCUGCGCCGAUGGAGGUGUAGAGACUAGACGGCACCCACCUAAGGCAAACGCUAUGGUGAAGGCAUAGUCUAGGGAGAGGCGAAAGUCACACAAACCGG | 0.0489
GUGCCUUGCGCCGGGAAACCACGCAAGGGAUGGUGUCAAAUUCGGCGAAACCUAAGCGCCCGCCCGGGCGUAUGGCAACGCCGAGCCAAGCUUCGGCGCCUGCGCCGAUGGAGGUGUAGAGACUAGACGGCACCCACCUAAGGCAAACGCUAUGGUGAAGGCAUAGUCUAGGGAGCGGCGAAAGUCACACAAACCGG | 0.0614
GUGCCUUGCGCCGGGAAACCACGCAAGGGAUGGUGUCAAAUUCGGCGAAACCUAAGCGCCCGCCCGGGCGUAUGGCAACGCCGAGCCAAGCUUCGGCGCCUGCGCCGAUGGAGGUGUAGAGACUAGACGGCACCCACCUAAGGCAAACGUUAUGGUGAAGGCAUAGUCUAGGGAGCGGCGAAAGUCACACAAACCGG | 0.0507
GUGCCUUGCGCCGGGAAACCACGCAAGGGAUGGUGUCAAAUUCGGCGAAACCUAAGCGCCCGCCCGGGCGUAUGGCAACGCCGAGCCAAGCUUCGGCGCCUGCGCCGAUGGAGGUGUAGAGACUAGACGGCACCCACCUAAGGCAAACGUUAUGGUGAAGGCAUAGUCUAGGGAGAGGCGAAAGUCACACAAACCGG | 0.0336
GUGCCUUGCGCCGGGAAACCACGCAAGGGAUGGUGUCAAAUUCGGCGAAACCUAAGCGCCCGCCCGGGCGUAUGGCAACGCCGAGCCAAGCUUCGGCGCCUGCGCCGAUGGAGGUGUAGAGACUAGACGGCACCCACCUAAGGCAAACGUUAUGGUGAAGGCAUAGUCUAGGGAGGGGCGAAAGUCACACAAACCGG | 0.00703
GUGCCUUGCGCCGGGAAACCACGCAAGGGAUGGUGUCAAAUUCGGCGAAACCUAAGCGCCCGCCCGGGCGUAUGGCAACGCCGAGCCAAGCUUCGGCGCCUGCGCCGAUGUAGGUGUAGAGACUAGACGGCACCCACCUAAGGCAAACGCUAUGGUGAAGGCAUAGUCCAGGGAGUGGCGAAAGUCACACAAACCGG | 0.971
GUGCCUUGCGCCGGGAAACCACGCAAGGGAUGGUGUCAAAUUCGGCGAAACCUAAGCGCCCGCCCGGGCGUAUGGCAACGCCGAGCCAAGCUUCGGCGCCUGCGCCGAUGGAGGUGUAGAGACUAGACGGCACCCACCUAAGGCAAACGUUAUGGUGAAGGCAUAGUCGAGGGAGCGGCGAAAGUCACACAAACCGG | 0.0386
GUGCCUUGCGCCGGGAAACCACGCAAGGGAUGGUGUCAAAUUCGGCGAAACCUAAGCGCCCGCCCGGGCGUAUGGCAACGCCGAGCCAAGCUUCGGCGCCUGCGCCGAUGGAGGUGUAGAGACUAGACGGCACCCACCUAAGGCAAACGUUAUGGUGAAGGCAUAGUCGAGGGAGGGGCGAAAGUCACACAAACCGG | 0.00579
GUGCCUUGCGCCGGGAAACCACGCAAGGGAUGGUGUCAAAUUCGGCGAAACCUAAGCGCCCGCCCGGGCGUAUGGCAACGCCGAGCCAAGCUUCGGCGCCUGCGCCGAUGGAGGUGUAGAGACUAGACGGCACCCACCUAAGGCAAACGCUAUGGUGAAGGCAUAGUCUAGGGAGUGGCGAAAGUCACACAAACCGG | 0.196
GUGCCUUGCGCCGGGAAACCACGCAAGGGAUGGUGUCAAAUUCGGCGAAACCUAAGCGCCCGCCCGGGCGUAUGGCAACGCCGAGCCAAGCUUCGGCGCCUGCGCCGAUGGAGGUGUAGAGACUAGACGGCACCCACCUAAGGCAAACGCUAUGGUGAAGGCAUAGUCGAGGGAGUGGCGAAAGUCACACAAACCGG | 0.117
GUGCCUUGCGCCGGGAAACCACGCAAGGGAUGGUGUCAAAUUCGGCGAAACCUAAGCGCCCGCCCGGGCGUAUGGCAACGCCGAGCCAAGCUUCGGCGCCUGCGCCGAUGGAGGUGUAGAGACUAGACGGCACCCACCUAAGGCAAACGCUAUGGUGAAGGCAUAGUCAAGGGAGUGGCGAAAGUCACACAAACCGG | 0.0602
GUGCCUUGCGCCGGGAAACCACGCAAGGGAUGGUGUCAAAUUCGGCGAAACCUAAGCGCCCGCCCGGGCGUAUGGCAACGCCGAGCCAAGCUUCGGCGCCUGCGCCGAUGGAGGUGUAGAGACUAGACGGCACCCACCUAAGGCAAACGUUAUGGUGAAGGCAUAGUCUAGGGAGUGGCGAAAGUCACACAAACCGG | 0.112
GUGCCUUGCGCCGGGAAACCACGCAAGGGAUGGUGUCAAAUUCGGCGAAACCUAAGCGCCCGCCCGGGCGUAUGGCAACGCCGAGCCAAGCUUCGGCGCCUGCGCCGAUGGAGGUGUAGAGACUAGACGGCACCCACCUAAGGCAAACGCUAUGGUGAAGGCAUAGUCGAGGGAGAGGCGAAAGUCACACAAACCGG | 0.0309
GUGCCUUGCGCCGGGAAACCACGCAAGGGAUGGUGUCAAAUUCGGCGAAACCUAAGCGCCCGCCCGGGCGUAUGGCAACGCCGAGCCAAGCUUCGGCGCCUGCGCCGAUGGAGGUGUAGAGACUAGACGGCACCCACCUAAGGCAAACGCUAUGGUGAAGGCAUAGUCGAGGGAGGGGCGAAAGUCACACAAACCGG | 0.00607
GUGCCUUGCGCCGGGAAACCACGCAAGGGAUGGUGUCAAAUUCGGCGAAACCUAAGCGCCCGCCCGGGCGUAUGGCAACGCCGAGCCAAGCUUCGGCGCCUGCGCCGAUGGAGGUGUAGAGACUAGACGGCACCCACCUAAGGCAAACGCUAUGGUGAAGGCAUAGUCGAGGGAGCGGCGAAAGUCACACAAACCGG | 0.0577
GUGCCUUGCGCCGGGAAACCACGCAAGGGAUGGUGUCAAAUUCGGCGAAACCUAAGCGCCCGCCCGGGCGUAUGGCAACGCCGAGCCAAGCUUCGGCGCCUGCGCCGAUGUAGGUGUAGCGACUAGACGGCACCCACCUAAGGCAAACGCUAUGGUGAAGGCAUAGUCCAGGGAGUGGCGAAAGUCACACAAACCGG | 0.587
GUGCCUUGCGCCGGGAAACCACGCAAGGGAUGGUGUCAAAUUCGGCGAAACCUAAGCGCCCGCCCGGGCGUAUGGCAACGCCGAGCCAAGCUUCGGCGCCUGCGCCGAUGUAGGUGUAGCGACUAGACGGCACCCACCUAAGGCCAACGAUAUGGUGAAGGCAUAGUCCAGGGAGUGGCGAAAGUCACACAAACCGG | 0.0343
